According to US20190359693A1:

Legend:
Assay in all cases: cell-based or functional assay
[1] = target: hemagglutinin (HA) of influenza virus H7N3 A/NIBRG/60 (A/mallard/Netherlands/12/00) (influenza A virus)
[2] = target: hemagglutinin (HA) of influenza virus H1N1 A/Puerto Rico/8/34-MA (influenza A virus)
[3] = target: hemagglutinin (HA) of influenza virus H3N2 A/HK/1/68-MA (influenza A virus)
[4] = target: hemagglutinin (HA) of influenza virus B/Florida/04/06 (Yamagata) (influenza B virus)
[5] = target: hemagglutinin (HA) of influenza virus B/Lee/40 (Old) (influenza B virus) (UniProt P03460)
[6] = target: hemagglutinin (HA) of influenza virus H5N1 A/Vietnam/1194/04 (influenza A virus)
[7] = target: hemagglutinin (HA) of influenza B/Florida/04/06 (Yamagata) (influenza B virus)
[8] = target: hemagglutinin (HA) of influenza B/Harbin/7/94 (Yamagata) (influenza B virus)
[9] = target: hemagglutinin (HA) of influenza B/Massachusetts/02/12 (Yamagata) (influenza B virus)
[10] = target: hemagglutinin (HA) of influenza B/Lee/40 (Old) (influenza B virus) (UniProt P03460)
[11] = target: hemagglutinin (HA) of influenza B/Malaysia/2506/04 (Victoria) (influenza B virus)
[12] = target: HA of H1N1 A/Puerto Rico/8/34-MA (influenza A virus)
[13] = target: HA of H7N3 A/NIBRG/60 (A/mallard/NL/12/00) (influenza A virus)
[14] = target: HA of H3N2 A/Brisbane/10/2007 (influenza A virus)
[15] = target: HA of H3N2 A/Wisconsin/67/2005 (influenza A virus)
[16] = target: HA of H1N1 A/New Caledonia/20/1999 (influenza A virus)
[17] = target: HA of H5N1 A/Vietnam/1194/04 (influenza A virus)
[18] = target: HA of B/Florida/04/2006 (Yamagata) (influenza B virus)
[19] = target: HA of H1N1 A/Brisbane/59/07 (influenza A virus)
[20] = target: hemagglutinin (HA) of influenza A/New Caledonia/20/99 (H1N1) (influenza A virus A/New Caledonia/20/99 (H1N1))
[21] = target: hemagglutinin (HA) of influenza A/Vietnam/1194/04 (H5N1) (influenza A virus A/Vietnam/1194/04 (H5N1))
[22] = target: hemagglutinin (HA) of influenza A/Brisbane/10/07 (H3N2) (influenza A virus A/Brisbane/10/07 (H3N2))
[23] = target: hemagglutinin (HA) of influenza A/Hong Kong/1/68 (H3N2) (influenza A virus A/Hong Kong/1/68 (H3N2)) (UniProt Q91MA7)
[24] = target: hemagglutinin (HA) of influenza A/California/07/09 (H1N1) (influenza A virus A/California/07/09 (H1N1))

B1: MD2402 (protein)
chain: EVQLVESGGGLVQPGGSLRLSCAVSISIFDIYAMDWYRQAPGKQRDLVATSFRDGSTNYADSVKGRFTISRDNAKNTLYLQMNSLKPEDTAVYLCHVSLYRDPLGVAGGMGVYWGKGALVTVSSAAAGGGGSGGGGSGGGGSGGGGSGGGGSGGGGSGGGGSEVQLVESGGGLVQAGGSLKLSCAASGRTYAMGWFRQAPGKEREFVAHINALGTRTYYSDSVKGRFTISRDNAKNTEYLEMNNLKPEDTAVYYCTAQGQWRAAPVAVAAEYEFWGQGTQVTVSSLINLEGGGGSGGGGSGGGGSGGGGSGGGGSGGGGSGGGGSPAGEVQLVESGGGLVQPGGSLRLSCAATGFTLENKAIGWFRQTPGSEREGVLCISKSGSWTYYTDSMRGRFTISRDNAENTVYLQMDSLKPEDTAVYYCATTTAGGGLCWDGTTFSRLASSWGQGTQVTVSSAAAGGGGSGGGGSGGGGSGGGGSGGGGSGGGGSGGGGSEVQLVESGGGLVQPGGSLKLSCAASGFTFSTSWMYWLRQAPGKGLEWVSVINTDGGTYYADSVKDRFTISRDNAKDTLYLQMSSLKSEDTAVYYCAKDWGGPEPTRGQGTQVTVSS
average neutralization titer [1]: 33.6 nM | average neutralization titer [2]: 12.8 nM | average neutralization titer [3]: 28.3 nM | average neutralization titer [4]: 14.1 nM | average neutralization titer [5]: 35.4 nM | average neutralization titer [6]: 23.8 nM

B2: SD3092 (VHH)
VHH: EVQLVESGGGLVQPGGSLRLSCAISGLSLDTYAVGWFRQAPGKEREGVSCISSGHGMTYYADSVKGRFTISTDNSKNTLYLQMNSLRAEDTAVYYCATESRYYCSDNWPAPQRYIYWGQGTLVTVSS
VNA IC50 [7]: > 1000 nM | VNA IC50 [8]: > 1000 nM | VNA IC50 [9]: > 1000 nM | VNA IC50 [10]: 40 nM | VNA IC50 [11]: 40 nM

B3: SD3093 (VHH)
VHH: EVQLVESGGGLVQPGGSLRLSCAISGLSLDTYAVGWFRQAPGKEREGVSCISSGHGMTYYADSVKGRFTISTDNSKNTVYLQMNSLRAEDTAVYYCATESRYYCSDNWPAPQRYIYWGQGTLVTVSS
VNA IC50 [7]: 659 nM | VNA IC50 [8]: > 1000 nM | VNA IC50 [9]: 795 nM | VNA IC50 [10]: 32 nM | VNA IC50 [11]: 40 nM

B4: SD1070 (VHH)
VHH: EVQLVESGGGLVQAGGSLRISCAASGRTFSIYSMGWFRQAPGKEREFVATIGWNSGRTFYADSMKERFTISADNARNTLYLQMNSLKFEDTAVYYCAAAKGPLRLSSQADYWGQGTQVTVSS
VNA titer [12]: > 1000 nM | VNA titer [13]: 366 nM | VNA titer [14]: 15.3 nM | VNA titer [15]: > 1000 nM | VNA titer [16]: > 1000 nM | VNA titer [17]: > 1000 nM | VNA titer [18]: > 1000 nM

B5: SD3085 (VHH)
VHH: EVQLVESGGGLVQPGGSLRLSCAASGFTFSTSWMYWLRQAPGKGLEWVSVINTDGGTYYADSVKGRFTISRDNSKNTLYLQMNSLRAEDTAVYYCAKDWGGPEPTRGQGTLVTVSS
VNA IC50 [7]: 64 nM | VNA IC50 [8]: 228 nM | VNA IC50 [9]: 32 nM | VNA IC50 [10]: > 1000 nM | VNA IC50 [11]: 13 nM

B6: SD1017 (VHH)
VHH: EVQLVESGGGLVQAGGSLRLSCAASGRTYAMAWFRQAPGKEREFVAHINALGTRAYYSDSVEGRFTISRDNAKNTGYLQMNSLEPEDTAVYVCAAGGQWRAAPVADAAQYDFWGQGTQVTVSS
VNA titer [13]: 34.7 nM | VNA titer [14]: > 1000 nM | VNA titer [16]: > 1000 nM | VNA titer [17]: > 1000 nM | VNA titer [19]: > 1000 nM

B7: SD3013 (VHH)
VHH: EVQLVESGGGVVQPGGSLRLSCAASISIFDIYAMDWYRQAPGKQRELVATSFRDGSTYYADSVKGRFTISRDNSKNTLYLQMNSLRAEDTAVYLCHVSLYRDPLGVAGGMGVYWGKGALVTVSS
VNA IC50 [20]: 6 nM | VNA IC50 [21]: 20 nM | VNA IC50 [22]: 318 nM | VNA IC50 [23]: 126 nM

B8: SD3029 (VHH)
VHH: EVQLVESGGGLVQPGGSLRLSCAVSISIFDIYAMDWYRQAPGKQRDLVATSFRDGSTNYADSVKGRFTISRDNAKNTLYLQMNSLKPEDTAVYLCHVSLYRDPLGVAGGLGVYWGKGALVTVSS
VNA IC50 [20]: 4 nM | VNA IC50 [21]: 20 nM | VNA IC50 [22]: 632 nM | VNA IC50 [23]: 251 nM | VNA IC50 [24]: 3 nM

B9: SD3021 (VHH)
VHH: EVQLVESGGGVVQPGGSLRLSCAASISIFDIYAMDWYRQAPGKQRELVAVSFRDGSTYYADSVKGRFTISRDNSKNTLYLQMNSLRPEDTAVYLCHVSLYRDPLGVAGGLGVYWGKGALVTVSS
VNA IC50 [20]: 3 nM | VNA IC50 [21]: 15 nM | VNA IC50 [22]: > 1000 nM | VNA IC50 [24]: 3 nM

B10: SD3030 (VHH)
VHH: EVQLVESGGGLVQPGGSLRLSCAVSISIFDIYAMDWYRQAPGKQRDLVATSFRDGSTNYADSVKGRFTISRDNAKNTLYLQMNSLKPEDTAVYLCHVSLYRDPLGVAGGIGVYWGKGALVTVSS
VNA IC50 [20]: 8 nM | VNA IC50 [21]: 20 nM | VNA IC50 [22]: 274 nM | VNA IC50 [23]: 126 nM | VNA IC50 [24]: 3 nM

B11: SD3119 (VHH)
VHH: QVQLVESGGGVVQPGGSLRLSCAASISIFDIYAMDWYRQAPGKQRELVAVSFRDGSTYYADSVKGRFTISRDNSKNTLYLQMNSLRAEDTAVYYCHVSLYRDPLGVAGGIGVYWGQGTLVTVSS
VNA IC50 [20]: 3 nM | VNA IC50 [21]: 6 nM | VNA IC50 [22]: 253 nM | VNA IC50 [23]: 101 nM

B12: SD3022 (VHH)
VHH: EVQLVESGGGVVQPGGSLRLSCAASISIFDIYAMDWYRQAPGKQRELVAVSFRDGSTYYADSVKGRFTISRDNSKNTLYLQMNSLRPEDTAVYLCHVSLYRDPLGVAGGIGVYWGKGALVTVSS
VNA IC50 [20]: 8 nM | VNA IC50 [21]: 20 nM | VNA IC50 [22]: 632 nM | VNA IC50 [24]: 3 nM

B13: SD3079 (VHH)
VHH: EVQLVESGGGVVQPGGSLRLSCAASISIFDIYAMDWYRQAPGKQRELVAVSFRDGSTYYADSVKGRFTISRDNSKNTLYLQMNSLRAEDTAVYYCHVSLYRDPLGVAGGLGVYWGQGTLVTVSS
VNA IC50 [20]: 5 nM | VNA IC50 [21]: 16 nM | VNA IC50 [22]: 949 nM | VNA IC50 [23]: 503 nM

B14: SD2020 (VHH)
VHH: EVQLVESGGGLVQPGGSLRLSCAAAGGAFNRQLVAWFRQAPGKKREFVATVTTSGGSSYYADSVKGRFTISRDTAKNTVALQMNSLKAEDAAVYYCAARDSFTVAPYYPPESYAYWGQGTQVTVSS
VNA titer [13]: > 1000 nM | VNA titer [14]: 9.3 nM | VNA titer [15]: 304 nM | VNA titer [17]: > 1000 nM

B15: SD1049 (VHH)
VHH: EVQLVESGGGLVQAGGSLRLSCAASGRTLSLYSVGWFRQAPGKEREFVATIGWNSGRTFYVDSMKGRFTISRDNAKNTVYLQMNDLKVEDTAVYYCAAAKGPLRLSNQADYWGQGTQVTVSS
VNA titer [13]: 115 nM | VNA titer [14]: 19.1 nM | VNA titer [15]: > 1000 nM | VNA titer [16]: > 1000 nM | VNA titer [17]: > 1000 nM | VNA titer [19]: > 1000 nM

B16: MD2404 (bispecific antibody)
chain: EVQLVESGGGLVQPGGSLRLSCAVSISIFDIYAMDWYRQAPGKQRDLVATSFRDGSTNYADSVKGRFTISRDNAKNTLYLQMNSLKPEDTAVYLCHVSLYRDPLGVAGGMGVYWGKGALVTVSSAAAGGGGSGGGGSGGGGSGGGGSGGGGSGGGGSGGGGSEVQLVESGGGLVQAGGSLKLSCAASGRTYAMGWFRQAPGKEREFVAHINALGTRTYYSDSVKGRFTISRDNAKNTEYLEMNNLKPEDTAVYYCTAQGQWRAAPVAVAAEYEFWGQGTQVTVSSLINLEGGGGSGGGGSGGGGSGGGGSGGGGSGGGGSGGGGSPAGEVQLVESGGGLVQPGGSLKLSCAASGFTFSTSWMYWLRQAPGKGLEWVSVINTDGGTYYADSVKDRFTISRDNAKDTLYLQMSSLKSEDTAVYYCAKDWGGPEPTRGQGTQVTVSSAAAGGGGSGGGGSGGGGSGGGGSGGGGSGGGGSGGGGSEVQLVESGGGLVQPGGSLKLSCAASGFTFSTSWMYWLRQAPGKGLEWVSVINTDGGTYYADSVKDRFTISRDNAKDTLYLQMSSLKSEDTAVYYCAKDWGGPEPTRGQGTQVTVSS
average neutralization titer [1]: 34.3 nM | average neutralization titer [2]: 12.2 nM | average neutralization titer [3]: 57.7 nM | average neutralization titer [4]: 2.1 nM | average neutralization titer [5]: 30.3 nM | average neutralization titer [6]: 20.4 nM
